{"source": "paper PMC11994974", "about": "(Virus Research, 2025)", "key": {"[1]": {"target": "recombinant NP of influenza A/PR/8/34 (H1N1) purified from bacteria (Influenza A virus A/Puerto Rico/8/1934 …, UniProt P03466)", "experiment": "far-Western, overlay or dot blot"}, "[2]": {"target": "NP in H1N1 viral lysate (A/Puerto Rico/8/34) (Influenza A virus A/Puerto Rico/8/1934 …, UniProt P03466)", "experiment": "far-Western, overlay or dot blot"}, "[3]": {"target": "NP WT 1–498 (deletion library, wild type) (Influenza A virus A/California/07/2009 …, UniProt C6KQ05, strain)", "experiment": "far-Western, overlay or dot blot"}, "[4]": {"target": "recombinant nucleoprotein (NP) of influenza A/Brisbane/10/2007 (H3N2) (Influenza A virus A/Brisbane/10/2007 …, UniProt P03466, strain)", "experiment": "BLI"}}, "data": [{"binder": "anti-NP mouse monoclonal antibody HB65 (antibody, V domains shown) VH: EVKLVESGGALVNPGGSLKLSCAASGFIFSSYAMSWIRQTPEKRLEWVASTSGGGTTYYLDSVRGRFTISRDNARRILYLQMTSLRSEDTAIYFCGRDGNWFTSWGQGTLVTVSI VL: NIVMTQSPKSMSMSVGERVTLTCKASENVVTYVSWYQQKPEQSPKLLIYGASNRYTGVPDRFTGSGSATDFTLTISSVQAEDLADYHCGQGYSYPYTFGGGTKLEIK", "values": [{"measurement": "binding result", "setting": "[1]", "value": "binds"}, {"measurement": "binding result", "setting": "[2]", "value": "binds"}, {"measurement": "binding result", "setting": "[3]", "value": "binds"}, {"measurement": "Kd", "setting": "[4]", "value": "120 ± 21", "unit": "nM"}]}]}
